Assays:
[1] = biological target: protein extracted from High-5 cells infected with wild-type baculovirus; test: antigen dot blot, negative control extract of wild-type baculovirus infected High-5 cells, mAb 1:100
[2] = biological target: dengue 2 virus recombinant envelope glycoprotein (rEgp) expressed by baculovirus (dengue 2 virus (strain PR 159)) (UniProt P12823); test: antigen dot blot, extract of infected High-5 cells, mAb 1:100, 125I goat anti-mouse immunoglobulin
[3] = biological target: protein expressed by the recombinant baculovirus clone containing DEN-2 prME genes (ACNPV-prME) (dengue 2 virus); test: as above
[4] = biological target: native envelope glycoprotein (Egp) on purified DEN-2 virus (dengue 2 virus) (UniProt P14340); test: antigen dot blot, purified DEN-2 virus, mAb 1:100, 125I goat anti-mouse immunoglobulin
[5] = biological target: native envelope glycoprotein (Egp) on purified DEN-2 virus (dengue 2 virus) (UniProt P14340); test: particle fluorescence assay (PFCIA), FITC-labeled mAb on antigen-coated polystyrene beads, pH 5.0, purified DEN-2 virus
[6] = biological target: dengue 2 virus recombinant envelope glycoprotein (rEgp) expressed by baculovirus (dengue 2 virus (strain PR 159)) (UniProt P12823); test: particle fluorescence assay (PFCIA), FITC-labeled mAb on antigen-coated polystyrene beads, pH 5.0, lysate of cells infected with the E-protein recombinant baculovirus
[7] = biological target: dengue 2 virus recombinant envelope glycoprotein (rEgp) expressed by baculovirus (dengue 2 virus (strain PR 159)) (UniProt P12823); test: particle fluorescence assay (PFCIA), FITC-labeled mAb on antigen-coated polystyrene beads, pH 5.0, partially-purified recombinant E protein

Substance | Reactivity with antigen (cpm) [1] | Reactivity with antigen (cpm) [2] | Reactivity with antigen (cpm) [3] | Reactivity with antigen (cpm) [4] | Binding affinity [5] | Binding affinity [6] | Binding affinity [7]
monoclonal antibody 3H5 | 1400 cpm | 13600 cpm | 10100 cpm | 7500 cpm | – | – | –
monoclonal antibody 4G2 | 1000 cpm | 8500 cpm | 5000 cpm | 16800 cpm | 1.3e-06 | 2.9e-06 | 2.3e-06
